In the supplement of paper PMC10065799, “High-throughput profiling of sequence recognition by tyrosine kinases and SH2 domains using bacterial peptide display” (eLife, 2023):

Assays:
Fer (mouse) = experiment: phosphorylation enrichment, bacterial display (enrichment ratio); higher = better substrate or ligand; peptides without Tyr show the background
AncSZ = experiment: as above
Hck = Hck (UniProt P08631); experiment: as above
EPHB1 = EPHB1 (UniProt P54762); experiment: as above
FGFR1 = FGFR1 (UniProt P11362); experiment: as above
c-Src = experiment: as above
Fyn = Fyn (UniProt P06241); experiment: as above
Sequence of Fyn (P06241 whole entry, looked up): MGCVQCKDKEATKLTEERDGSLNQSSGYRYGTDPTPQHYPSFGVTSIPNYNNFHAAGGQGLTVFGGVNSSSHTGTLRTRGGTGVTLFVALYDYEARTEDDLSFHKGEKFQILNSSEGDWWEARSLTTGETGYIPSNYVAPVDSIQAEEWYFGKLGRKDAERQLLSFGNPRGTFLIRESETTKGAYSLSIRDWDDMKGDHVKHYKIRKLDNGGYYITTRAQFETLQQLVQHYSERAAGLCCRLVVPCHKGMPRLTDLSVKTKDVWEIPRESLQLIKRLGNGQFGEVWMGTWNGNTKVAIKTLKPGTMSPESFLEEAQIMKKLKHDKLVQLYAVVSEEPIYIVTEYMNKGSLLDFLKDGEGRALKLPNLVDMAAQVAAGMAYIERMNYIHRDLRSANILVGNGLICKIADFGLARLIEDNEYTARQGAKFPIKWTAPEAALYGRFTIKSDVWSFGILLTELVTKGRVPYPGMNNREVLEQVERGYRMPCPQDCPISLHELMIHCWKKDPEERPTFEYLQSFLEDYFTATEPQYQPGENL

Fes = Fes (UniProt P07332); experiment: as above
FGFR3 = FGFR3 (UniProt P22607); experiment: as above
Sequence of FGFR3 (P22607 whole entry, looked up): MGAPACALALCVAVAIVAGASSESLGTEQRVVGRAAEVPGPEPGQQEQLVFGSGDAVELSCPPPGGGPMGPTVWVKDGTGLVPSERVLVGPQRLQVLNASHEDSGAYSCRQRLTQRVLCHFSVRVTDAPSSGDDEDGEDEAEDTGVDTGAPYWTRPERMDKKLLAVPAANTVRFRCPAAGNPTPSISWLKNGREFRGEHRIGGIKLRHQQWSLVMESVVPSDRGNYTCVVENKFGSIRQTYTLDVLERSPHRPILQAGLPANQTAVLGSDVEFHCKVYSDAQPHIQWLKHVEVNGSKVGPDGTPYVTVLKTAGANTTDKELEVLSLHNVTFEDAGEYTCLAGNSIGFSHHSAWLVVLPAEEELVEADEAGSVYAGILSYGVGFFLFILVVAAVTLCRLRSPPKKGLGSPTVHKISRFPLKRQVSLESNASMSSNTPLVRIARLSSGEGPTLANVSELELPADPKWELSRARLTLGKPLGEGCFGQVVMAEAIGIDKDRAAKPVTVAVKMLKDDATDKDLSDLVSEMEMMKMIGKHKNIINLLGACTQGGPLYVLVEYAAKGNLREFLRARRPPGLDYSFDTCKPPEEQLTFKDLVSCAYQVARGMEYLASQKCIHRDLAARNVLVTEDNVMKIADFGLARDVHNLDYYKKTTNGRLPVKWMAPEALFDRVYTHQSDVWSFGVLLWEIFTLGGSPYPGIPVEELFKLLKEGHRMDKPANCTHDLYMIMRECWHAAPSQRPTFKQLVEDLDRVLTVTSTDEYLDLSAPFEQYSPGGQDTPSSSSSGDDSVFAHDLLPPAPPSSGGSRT

Jak2 = Jak2 (UniProt O60674); experiment: as above
Sequence of Jak2 (O60674 whole entry, looked up): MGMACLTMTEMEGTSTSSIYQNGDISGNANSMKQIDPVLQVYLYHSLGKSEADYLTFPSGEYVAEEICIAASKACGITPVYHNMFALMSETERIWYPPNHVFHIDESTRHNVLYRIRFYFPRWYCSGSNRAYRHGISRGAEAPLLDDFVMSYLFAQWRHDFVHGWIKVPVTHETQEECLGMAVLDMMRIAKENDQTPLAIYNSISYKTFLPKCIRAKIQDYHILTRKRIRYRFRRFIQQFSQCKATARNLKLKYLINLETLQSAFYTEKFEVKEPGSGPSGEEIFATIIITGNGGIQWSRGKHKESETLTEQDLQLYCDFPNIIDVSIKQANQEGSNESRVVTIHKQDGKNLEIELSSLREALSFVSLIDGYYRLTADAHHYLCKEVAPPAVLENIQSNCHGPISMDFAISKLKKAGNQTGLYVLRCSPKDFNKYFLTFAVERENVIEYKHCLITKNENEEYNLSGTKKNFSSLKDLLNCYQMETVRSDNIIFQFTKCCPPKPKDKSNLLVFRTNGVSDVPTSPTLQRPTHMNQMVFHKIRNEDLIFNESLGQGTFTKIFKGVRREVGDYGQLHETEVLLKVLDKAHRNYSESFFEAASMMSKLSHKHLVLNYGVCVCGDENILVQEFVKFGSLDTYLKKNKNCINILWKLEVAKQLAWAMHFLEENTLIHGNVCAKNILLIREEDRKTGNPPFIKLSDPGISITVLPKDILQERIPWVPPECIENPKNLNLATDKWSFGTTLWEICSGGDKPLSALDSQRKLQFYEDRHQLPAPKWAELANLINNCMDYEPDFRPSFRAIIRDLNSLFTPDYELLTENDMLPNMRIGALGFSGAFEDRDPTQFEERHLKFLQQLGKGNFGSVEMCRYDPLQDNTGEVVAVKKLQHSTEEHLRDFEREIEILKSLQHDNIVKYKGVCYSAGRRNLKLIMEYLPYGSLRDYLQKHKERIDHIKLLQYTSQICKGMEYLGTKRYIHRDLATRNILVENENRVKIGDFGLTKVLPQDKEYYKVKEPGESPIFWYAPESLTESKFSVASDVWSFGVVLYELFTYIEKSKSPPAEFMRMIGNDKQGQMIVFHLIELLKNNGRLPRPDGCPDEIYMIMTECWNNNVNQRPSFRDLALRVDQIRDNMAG

MERTK = MERTK (UniProt Q12866); experiment: as above
c-Abl (mouse) = experiment: as above
EPHB2 = EPHB2 (UniProt P29323); experiment: as above
Sequence of EPHB2 (P29323 whole entry, looked up): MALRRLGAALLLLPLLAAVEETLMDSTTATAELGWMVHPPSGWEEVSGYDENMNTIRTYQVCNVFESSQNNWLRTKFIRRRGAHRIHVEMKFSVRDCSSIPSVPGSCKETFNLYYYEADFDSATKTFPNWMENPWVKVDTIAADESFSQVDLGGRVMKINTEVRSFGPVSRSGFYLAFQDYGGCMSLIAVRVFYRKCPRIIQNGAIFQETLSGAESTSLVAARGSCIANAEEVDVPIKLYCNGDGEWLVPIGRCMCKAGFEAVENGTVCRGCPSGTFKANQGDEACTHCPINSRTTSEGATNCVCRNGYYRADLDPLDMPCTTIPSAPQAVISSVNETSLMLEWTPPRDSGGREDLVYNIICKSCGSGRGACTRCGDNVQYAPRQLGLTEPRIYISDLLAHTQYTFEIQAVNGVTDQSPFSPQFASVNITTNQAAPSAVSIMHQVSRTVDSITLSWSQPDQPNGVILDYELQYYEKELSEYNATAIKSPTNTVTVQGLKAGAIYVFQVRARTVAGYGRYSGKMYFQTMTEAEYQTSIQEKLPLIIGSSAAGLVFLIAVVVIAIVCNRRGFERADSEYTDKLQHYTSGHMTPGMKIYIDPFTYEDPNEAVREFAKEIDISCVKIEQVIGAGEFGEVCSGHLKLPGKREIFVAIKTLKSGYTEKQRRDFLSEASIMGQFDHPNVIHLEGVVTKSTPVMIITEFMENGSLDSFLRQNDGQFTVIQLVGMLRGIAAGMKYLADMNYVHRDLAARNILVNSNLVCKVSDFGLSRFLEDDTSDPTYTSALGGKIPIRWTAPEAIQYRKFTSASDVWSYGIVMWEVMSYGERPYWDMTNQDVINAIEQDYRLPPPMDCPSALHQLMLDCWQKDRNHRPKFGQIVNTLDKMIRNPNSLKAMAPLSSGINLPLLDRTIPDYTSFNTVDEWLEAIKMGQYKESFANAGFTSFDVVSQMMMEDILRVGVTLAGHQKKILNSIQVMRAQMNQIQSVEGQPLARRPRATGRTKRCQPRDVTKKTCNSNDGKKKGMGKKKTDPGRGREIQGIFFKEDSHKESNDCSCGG

c-Src SH2 = experiment: SH2 binding enrichment of the phosphorylated peptide, bacterial display (enrichment ratio); higher = better substrate or ligand; peptides without Tyr show the background
SHP2-C SH2 = experiment: as above
Grb2 SH2 = Grb2 SH2 (UniProt P62993); experiment: as above
Sequence of Grb2 SH2 (P62993 whole entry, looked up, the tested form may be a part): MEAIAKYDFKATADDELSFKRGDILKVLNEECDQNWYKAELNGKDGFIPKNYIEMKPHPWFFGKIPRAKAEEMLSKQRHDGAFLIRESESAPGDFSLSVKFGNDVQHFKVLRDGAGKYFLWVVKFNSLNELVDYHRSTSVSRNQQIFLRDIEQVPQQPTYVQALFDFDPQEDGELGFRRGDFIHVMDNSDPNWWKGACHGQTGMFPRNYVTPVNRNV
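Wherever SH2 binding enrichment of the phosphorylated peptide, bacterial display is given: peptide library displayed on the E. coli surface as eCPX fusions, selected cells deep-sequenced, score is each peptide's frequency after selection divided by its frequency in the input.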
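Wherever phosphorylation enrichment, bacterial display is given: 11-residue human phosphosite peptides and single-mutation variants displayed on the E. coli surface, counted by deep sequencing, each peptide's frequency after selection divided by its frequency in the unselected input library; frequency after pTyr selection over input frequency; kinase dosed for 20-30% of maximal phosphorylation in three min.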

Sequence of Hck (P08631 whole entry, looked up): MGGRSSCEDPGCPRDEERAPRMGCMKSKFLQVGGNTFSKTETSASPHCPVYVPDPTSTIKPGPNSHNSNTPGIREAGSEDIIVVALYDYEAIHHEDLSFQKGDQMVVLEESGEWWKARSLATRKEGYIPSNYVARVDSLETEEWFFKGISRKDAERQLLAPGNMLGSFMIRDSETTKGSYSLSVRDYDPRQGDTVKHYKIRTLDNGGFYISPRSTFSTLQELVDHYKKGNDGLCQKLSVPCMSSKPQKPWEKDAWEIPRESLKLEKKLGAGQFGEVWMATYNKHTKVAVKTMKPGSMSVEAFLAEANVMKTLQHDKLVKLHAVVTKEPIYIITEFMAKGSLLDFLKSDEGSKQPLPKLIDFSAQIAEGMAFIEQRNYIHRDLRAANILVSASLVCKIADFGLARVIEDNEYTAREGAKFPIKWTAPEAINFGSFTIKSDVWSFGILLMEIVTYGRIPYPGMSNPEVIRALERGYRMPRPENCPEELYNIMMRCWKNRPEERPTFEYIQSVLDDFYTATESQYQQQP

Sequence: AIMSFYATLID [RYR1_Y2426_A2428T]
- phosphorylation enrichment (Fer (mouse)): 0.791
- phosphorylation enrichment (AncSZ): 1.31
- phosphorylation enrichment (Hck): 0.585
- phosphorylation enrichment (EPHB1): 1.05
- phosphorylation enrichment (FGFR1): 0.601
- phosphorylation enrichment (c-Src): 0.486
- phosphorylation enrichment (Fyn): 0.508
- phosphorylation enrichment (Fes): 1.51
- phosphorylation enrichment (FGFR3): 1.09
- phosphorylation enrichment (Jak2): 1.83
- phosphorylation enrichment (MERTK): 0.59
- phosphorylation enrichment (c-Abl (mouse)): 1.07
- phosphorylation enrichment (EPHB2): 0.836
- SH2 binding enrichment (c-Src SH2): 0.541
- SH2 binding enrichment (SHP2-C SH2): 0.673
- SH2 binding enrichment (Grb2 SH2): 0.869

Sequence: SLIDGYFRLTE [JAK2_Y372_A377E_YF]
- phosphorylation enrichment (Fer (mouse)): 0.545
- phosphorylation enrichment (AncSZ): 1.07
- phosphorylation enrichment (Hck): 0.442
- phosphorylation enrichment (EPHB1): 0.571
- phosphorylation enrichment (FGFR1): 0.553
- phosphorylation enrichment (c-Src): 0.446
- phosphorylation enrichment (Fyn): 0.456
- phosphorylation enrichment (Fes): 1.08
- phosphorylation enrichment (FGFR3): 0.715
- phosphorylation enrichment (Jak2): 4.29
- phosphorylation enrichment (MERTK): 0.542
- phosphorylation enrichment (c-Abl (mouse)): 0.867
- phosphorylation enrichment (EPHB2): 0.436
- SH2 binding enrichment (c-Src SH2): 1.85
- SH2 binding enrichment (SHP2-C SH2): 6.41
- SH2 binding enrichment (Grb2 SH2): 0.784

Sequence: EFISEHCGEII [EZH2_Y641_Y641H]
- phosphorylation enrichment (Fer (mouse)): 0.652
- phosphorylation enrichment (AncSZ): 1.35
- phosphorylation enrichment (Hck): 0.602
- phosphorylation enrichment (EPHB1): 0.733
- phosphorylation enrichment (FGFR1): 0.544
- phosphorylation enrichment (c-Src): 0.56
- phosphorylation enrichment (Fyn): 0.639
- phosphorylation enrichment (Fes): 1.31
- phosphorylation enrichment (FGFR3): 0.722
- phosphorylation enrichment (Jak2): 1.17
- phosphorylation enrichment (MERTK): 0.658
- phosphorylation enrichment (c-Abl (mouse)): 0.806
- phosphorylation enrichment (EPHB2): 0.644
- SH2 binding enrichment (c-Src SH2): 0.633
- SH2 binding enrichment (SHP2-C SH2): 0.784
- SH2 binding enrichment (Grb2 SH2): 0.831

Sequence: FGVTLYPNSRE [MEP1A_Y472]
- phosphorylation enrichment (Fer (mouse)): 0.398
- phosphorylation enrichment (AncSZ): 1.02
- phosphorylation enrichment (Hck): 0.599
- phosphorylation enrichment (EPHB1): 0.675
- phosphorylation enrichment (FGFR1): 0.556
- phosphorylation enrichment (c-Src): 0.541
- phosphorylation enrichment (Fyn): 0.432
- phosphorylation enrichment (Fes): 1.17
- phosphorylation enrichment (FGFR3): 0.766
- phosphorylation enrichment (Jak2): 0.92
- phosphorylation enrichment (MERTK): 0.714
- phosphorylation enrichment (c-Abl (mouse)): 0.995
- phosphorylation enrichment (EPHB2): 0.68
- SH2 binding enrichment (c-Src SH2): 0.638
- SH2 binding enrichment (SHP2-C SH2): 0.858
- SH2 binding enrichment (Grb2 SH2): 0.891

Sequence: GYKVRYATWSI [FGFR1_Y210]
- phosphorylation enrichment (Fer (mouse)): 0.456
- phosphorylation enrichment (AncSZ): 1.06
- phosphorylation enrichment (Hck): 0.593
- phosphorylation enrichment (EPHB1): 0.573
- phosphorylation enrichment (FGFR1): 0.519
- phosphorylation enrichment (c-Src): 0.582
- phosphorylation enrichment (Fyn): 0.54
- phosphorylation enrichment (Fes): 1.18
- phosphorylation enrichment (FGFR3): 0.669
- phosphorylation enrichment (Jak2): 1.08
- phosphorylation enrichment (MERTK): 0.657
- phosphorylation enrichment (c-Abl (mouse)): 0.969
- phosphorylation enrichment (EPHB2): 0.425
- SH2 binding enrichment (c-Src SH2): 1.28
- SH2 binding enrichment (SHP2-C SH2): 2.01
- SH2 binding enrichment (Grb2 SH2): 1.39

Sequence: WEPFGYAVTRC [PTPRT_Y412]
- phosphorylation enrichment (Fer (mouse)): 0.458
- phosphorylation enrichment (AncSZ): 0.947
- phosphorylation enrichment (Hck): 0.479
- phosphorylation enrichment (EPHB1): 0.591
- phosphorylation enrichment (FGFR1): 0.547
- phosphorylation enrichment (c-Src): 0.382
- phosphorylation enrichment (Fyn): 0.402
- phosphorylation enrichment (Fes): 0.999
- phosphorylation enrichment (FGFR3): 0.707
- phosphorylation enrichment (Jak2): 0.915
- phosphorylation enrichment (MERTK): 0.345
- phosphorylation enrichment (c-Abl (mouse)): 0.673
- phosphorylation enrichment (EPHB2): 0.567
- SH2 binding enrichment (c-Src SH2): 0.685
- SH2 binding enrichment (SHP2-C SH2): 0.589
- SH2 binding enrichment (Grb2 SH2): 0.683

Sequence: FADIAYNFHHG [PAH_Y166_R169H_YF]
- phosphorylation enrichment (Fer (mouse)): 0.483
- phosphorylation enrichment (AncSZ): 0.686
- phosphorylation enrichment (Hck): 0.528
- phosphorylation enrichment (EPHB1): 0.427
- phosphorylation enrichment (FGFR1): 0.515
- phosphorylation enrichment (c-Src): 0.501
- phosphorylation enrichment (Fyn): 0.704
- phosphorylation enrichment (Fes): 0.725
- phosphorylation enrichment (FGFR3): 0.478
- phosphorylation enrichment (Jak2): 0.43
- phosphorylation enrichment (MERTK): 0.406
- phosphorylation enrichment (c-Abl (mouse)): 0.354
- phosphorylation enrichment (EPHB2): 0.524
- SH2 binding enrichment (c-Src SH2): 0.566
- SH2 binding enrichment (SHP2-C SH2): 0.564
- SH2 binding enrichment (Grb2 SH2): 0.62

Sequence: SHSMRYFYTAV [HLA-C_Y31_D33Y]
- phosphorylation enrichment (Fer (mouse)): 0.587
- phosphorylation enrichment (AncSZ): 1.04
- phosphorylation enrichment (Hck): 0.631
- phosphorylation enrichment (EPHB1): 0.71
- phosphorylation enrichment (FGFR1): 0.778
- phosphorylation enrichment (c-Src): 0.928
- phosphorylation enrichment (Fyn): 0.611
- phosphorylation enrichment (Fes): 1.26
- phosphorylation enrichment (FGFR3): 0.893
- phosphorylation enrichment (Jak2): 1.2
- phosphorylation enrichment (MERTK): 3.29
- phosphorylation enrichment (c-Abl (mouse)): 0.691
- phosphorylation enrichment (EPHB2): 0.689
- SH2 binding enrichment (c-Src SH2): 2
- SH2 binding enrichment (SHP2-C SH2): 1.97
- SH2 binding enrichment (Grb2 SH2): 1.28

Sequence: LALTVYADCLA [ABCA4_Y2063_G2059A]
- phosphorylation enrichment (Fer (mouse)): 0.781
- phosphorylation enrichment (AncSZ): 1.42
- phosphorylation enrichment (Hck): 0.73
- phosphorylation enrichment (EPHB1): 1.08
- phosphorylation enrichment (FGFR1): 0.665
- phosphorylation enrichment (c-Src): 0.62
- phosphorylation enrichment (Fyn): 0.699
- phosphorylation enrichment (Fes): 1.48
- phosphorylation enrichment (FGFR3): 1.05
- phosphorylation enrichment (Jak2): 1.53
- phosphorylation enrichment (MERTK): 0.517
- phosphorylation enrichment (c-Abl (mouse)): 1.09
- phosphorylation enrichment (EPHB2): 0.938
- SH2 binding enrichment (c-Src SH2): 0.572
- SH2 binding enrichment (SHP2-C SH2): 0.508
- SH2 binding enrichment (Grb2 SH2): 0.624

Sequence: ALERPYTSKHS [NANS_Y71]
- phosphorylation enrichment (Fer (mouse)): 0.353
- phosphorylation enrichment (AncSZ): 0.531
- phosphorylation enrichment (Hck): 0.463
- phosphorylation enrichment (EPHB1): 0.372
- phosphorylation enrichment (FGFR1): 0.381
- phosphorylation enrichment (c-Src): 0.461
- phosphorylation enrichment (Fyn): 0.406
- phosphorylation enrichment (Fes): 0.535
- phosphorylation enrichment (FGFR3): 0.398
- phosphorylation enrichment (Jak2): 0.564
- phosphorylation enrichment (MERTK): 0.442
- phosphorylation enrichment (c-Abl (mouse)): 0.615
- phosphorylation enrichment (EPHB2): 0.459
- SH2 binding enrichment (c-Src SH2): 0.6
- SH2 binding enrichment (SHP2-C SH2): 0.529
- SH2 binding enrichment (Grb2 SH2): 0.866

Sequence: STEEQYRIRQV [EFHC1_Y115]
- phosphorylation enrichment (Fer (mouse)): 0.375
- phosphorylation enrichment (AncSZ): 0.718
- phosphorylation enrichment (Hck): 0.41
- phosphorylation enrichment (EPHB1): 0.314
- phosphorylation enrichment (FGFR1): 0.425
- phosphorylation enrichment (c-Src): 0.331
- phosphorylation enrichment (Fyn): 0.475
- phosphorylation enrichment (Fes): 0.589
- phosphorylation enrichment (FGFR3): 0.554
- phosphorylation enrichment (Jak2): 0.516
- phosphorylation enrichment (MERTK): 0.345
- phosphorylation enrichment (c-Abl (mouse)): 0.43
- phosphorylation enrichment (EPHB2): 0.416
- SH2 binding enrichment (c-Src SH2): 0.609
- SH2 binding enrichment (SHP2-C SH2): 0.738
- SH2 binding enrichment (Grb2 SH2): 0.802

Sequence: IVAREYFSDAD [CAMK2A_Y106_E109D_YF]
- phosphorylation enrichment (Fer (mouse)): 0.418
- phosphorylation enrichment (AncSZ): 0.744
- phosphorylation enrichment (Hck): 0.415
- phosphorylation enrichment (EPHB1): 0.48
- phosphorylation enrichment (FGFR1): 0.461
- phosphorylation enrichment (c-Src): 0.438
- phosphorylation enrichment (Fyn): 0.378
- phosphorylation enrichment (Fes): 0.922
- phosphorylation enrichment (FGFR3): 0.583
- phosphorylation enrichment (Jak2): 0.793
- phosphorylation enrichment (MERTK): 0.378
- phosphorylation enrichment (c-Abl (mouse)): 0.8
- phosphorylation enrichment (EPHB2): 0.491
- SH2 binding enrichment (c-Src SH2): 0.467
- SH2 binding enrichment (SHP2-C SH2): 0.589
- SH2 binding enrichment (Grb2 SH2): 0.8

Sequence: TWSSSYRSDRL [CRYBB1_Y131]
- phosphorylation enrichment (Fer (mouse)): 0.477
- phosphorylation enrichment (AncSZ): 0.682
- phosphorylation enrichment (Hck): 0.419
- phosphorylation enrichment (EPHB1): 0.441
- phosphorylation enrichment (FGFR1): 0.398
- phosphorylation enrichment (c-Src): 0.451
- phosphorylation enrichment (Fyn): 0.456
- phosphorylation enrichment (Fes): 1.07
- phosphorylation enrichment (FGFR3): 0.389
- phosphorylation enrichment (Jak2): 0.621
- phosphorylation enrichment (MERTK): 0.448
- phosphorylation enrichment (c-Abl (mouse)): 0.593
- phosphorylation enrichment (EPHB2): 0.608
- SH2 binding enrichment (c-Src SH2): 0.473
- SH2 binding enrichment (SHP2-C SH2): 0.722
- SH2 binding enrichment (Grb2 SH2): 0.997

Sequence: GPIEVYLCPEE [E2F3_Y349]
- phosphorylation enrichment (Fer (mouse)): 0.458
- phosphorylation enrichment (AncSZ): 1.18
- phosphorylation enrichment (Hck): 0.549
- phosphorylation enrichment (EPHB1): 0.696
- phosphorylation enrichment (FGFR1): 0.462
- phosphorylation enrichment (c-Src): 0.683
- phosphorylation enrichment (Fyn): 0.525
- phosphorylation enrichment (Fes): 1.08
- phosphorylation enrichment (FGFR3): 0.743
- phosphorylation enrichment (Jak2): 1.29
- phosphorylation enrichment (MERTK): 0.437
- phosphorylation enrichment (c-Abl (mouse)): 0.724
- phosphorylation enrichment (EPHB2): 0.533
- SH2 binding enrichment (c-Src SH2): 0.541
- SH2 binding enrichment (SHP2-C SH2): 0.754
- SH2 binding enrichment (Grb2 SH2): 0.817
